Reference: article PMC8196007, “HSP-90/kinase complexes are stabilized by the large PPIase FKB-6” (Scientific Reports, 2021)

B1: FKB-6 (full-length) (natural protein, C. elegans, UniProt O45418 1-431, looked up)
chain: MSGEKIDITPKKDGGVLKLIKKEGQGVVKPTTGTTVKVHYVGTLENGTKFDSSRDRGDQFSFNLGRGNVIKGWDLGVATMTKGEVAEFTIRSDYGYGDAGSPPKIPGGATLIFEVELFEWSAEDISPDRDGTILRTIIVEGSKNSFPNDTSKVLAHCVGTYQGTEFYNREVNFHIGEGSEEGLPEGVERALRRFQLGEKSKIEIRGHKYTYGNSPPAGSNIPVNATLEFTIFLKEFEKVPATWEMTAEEKLDAAKQAKDRGTMYLQKGNLKLAYNKYKRAEEVLEYEKSTDPEKMAERETILNGAYLNLSLVCSKQNEQLECIKWCDKVLETKPGNVKALYRKATALLTMNEVRDAMKLFEKIVEVEPENKAAAQQIIVCRNTIREQNERDKKRFKNLFAKISTEEDKPTNTVEDEDEIVASTSGSSTSNA
notes: FKB-6, C. elegans large PPIase, homolog of human Fkbp51/Fkbp52; also called large PPIase FKB-6; source: E. coli BL21 (DE3) cod+, purified (HisTrap, gel filtration)

Legend:
nematode HSP-90 = target: T1, nematode HSP-90 (C. elegans, UniProt Q18688 1-702); test: native MS; LILBID-MS of the BS3-crosslinked sample and of non-crosslinked mixtures, sB-Raf:CDC-37:FKB-6:HSP-90 = 1:1:1:1 or as indicated; 25 mM Tris, 20 mM KCl, pH 7.5; conditions: both partners purified
T1 construct: HSP-90, C. elegans (nematode) Hsp90; also called HSP-90 dimer; source: E. coli BL21 (DE3) cod+, purified (HisTrap, gel filtration)

FKB-6 (full-length) = target: B1; test: as above; conditions: both partners purified

| Binder | binding result (nematode HSP-90) | binding result (FKB-6 (full-length)) |
| --- | --- | --- |
| B1 | binds | – |
| nematode CDC-37 (natural protein, C. elegans, UniProt O02108 1-370, looked up, CDC-37, C. elegans (nematode) Hsp90 cochaperone; source: E. coli BL21 (DE3) cod+, purified (HisTrap, gel filtration)) MPIDYSKWKDIEVSDDEDDTHPNIDTPSLFRWRHQARLERMAEKKMEQEKIDKEKGTTSKKMEELEKKLAAADVTDKSDIQKQIDEVKAQEEAWRKKEAELEEKERLEPWNVDTIGHEAFSTSRINKITEKKPQAPKTDEEDTHAMSTFFETHESLLEKMAVLKNGAKSTELFLAEHPHMASEYTANWLTIEALNAAIDFNEEKMKTMAEQCIIIQYLLELSKSLNAVATNTTVQKQFFKKFEAAEPVYMKHYQDEVKAFEDRLRTRAQTKRDAAMEEAEAEEKAERMKSAPGGIDPQEVFEQLPEEMRKCFEAHDIEALKGVAQKMDEEVFKYHFDRCIASGLWVPGKADDDDDDEEAAPAEEEPTTSS | binds | binds |
